# Values of other authors as cited in paper PMC11769735.
# Where two headings read alike, the source gives them in different places.
# Legend:
# G-actin [1] = target: G-actin (UniProt P68133)
# G-actin [2] = target: G-actin (UniProt P68133); remark: listed apart in the source
# [3] = target: ADP-actin filament barbed end (UniProt P68133)
substance,measurement,setting,value
Twinfilin C-ADF-H (from UniProt Q91YR1),Kd,G-actin [1],50 nM
Twinfilin N-ADF-H (from UniProt Q91YR1),Kd,G-actin [2],700 nM
Twinfilin (from UniProt Q91YR1),Kd,[3],13 nM
